Results on one molecule are retold here after publication PMC9492545 (Nature, 2022).

The experiment has as its target T1, SARS-CoV-2 nsp12 (RNA-dependent RNA polymerase with N-terminal NiRAN domain) (SARS-CoV-2, UniProt P0DTD1).
T1 construct: also called WT nsp12; RdRp
The experiment is described as follows: cryo-EM structure. The settings on record: both partners purified.

B1: SARS-CoV-2 nsp9 (native N terminus) (natural protein)
chain: NNELSPVALRQMSCAAGTTQTACTDDNALAYYNTTKGGRFVLALLSDLQDLKWARFPKSDGTGTIYTELEPPCRFVTDTPKGPKVKYLYFIKGLNNLNRGMVLGSLAATVRLQ
notes: also called native nsp9
As for B1, the binding result is given as “binds”.
